Experiment [1] has as its target T1, BMP5 (Homo sapiens, UniProt P22003).
T1 sequence (P22003 317-454): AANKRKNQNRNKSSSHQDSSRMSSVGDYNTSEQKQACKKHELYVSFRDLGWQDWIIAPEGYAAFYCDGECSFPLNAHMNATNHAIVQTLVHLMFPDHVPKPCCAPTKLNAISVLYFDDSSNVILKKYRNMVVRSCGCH
The experiment in a line: Surface plasmon resonance (SPR), BMPs injected over VHH-coated chip. The experiment is classed as binding. To be noted: molecule coupled to chip; unit inferred. The method, then:
(§1) To confirm their BMP specificities and to elucidate their binding affinities, our VHHs were subjected to surface plasmon resonance (SPR) analysis. In a first set of experiments, controls and VHHs (either as monomers or dimers) were coupled to SPR chips and the measurement of BMP affinities was obtained by injecting the different BMPs to the plate.
(§2) Serial dilutions (2.0-10 μg/ml) of purified VHHs were spotted on an amine-specific SensEye gold-film gel-type SPRchip (Ssens), using a Continuous Flow Microspotter (Wasatch Microfluidics, Salt Lake City, Utah, United States) as described (Lokate et al., 2007). BMP binding was analyzed on an IBIS MX96 (IBIS Technologies, Enschede, The Netherlands) instrument by performing injections with dilution series (0.05-2.0 μg/ml) of recombinant BMPs on the VHH-coated chip. In each injection, BMPs were injected and incubated for 8 min, followed by 15 min thorough washing with binding buffer (PBS+0.05% Tween20+0.05% sodium azide) to measure dissociation. Epitope binning was done by injecting VHH dilutions (2.0 μg/ml) over the chip, immediately after the dissociation step. Injections with blank binding buffer were used as reference. After each concatenated injection, the chip was regenerated with 10 mM glycine-HCl, pH 2.0. Experimental data were processed with SPRintX software (IBIS Technologies) and kinetic parameters were determined using Scrubber2 software (BioLogic Software, Campbell, ACT, Australia). Binding constants were obtained by global fitting to a one-site binding model.
Background: In SPR one partner is held on a chip, and binding of the other changes the refractive index at the surface.

Another experiment deals with T2, BMP4 (Homo sapiens, UniProt P12644).
T2 sequence (P12644 293-408): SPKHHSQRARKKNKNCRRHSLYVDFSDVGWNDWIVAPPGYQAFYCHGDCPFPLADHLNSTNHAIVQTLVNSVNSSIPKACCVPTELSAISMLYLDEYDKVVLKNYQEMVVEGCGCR
The description is as above. In kind it is binding. To be noted: molecule coupled to chip. Details: purchased R&D systems; ka (BMP4): unit not given here. Here is the method: as §1, §2

The target of experiment [2] is T1, BMP5. Description: BMP activity luciferase reporter assay (BRE-luciferase, ID1 promoter) in C2C12 cells. The experiment is classed as cell-based, mouse. Details: purchased R&D Systems 615-BMC-020. To be noted: 200 ng/ml hBMP5, 16 h; VHH, Noggin, Gremlin 500 ng/ml; LDN 0.5 μM; DMH1 0.2 μM. Here is the method: One of the most studied BMP target genes is the Inhibitor of Differentiation 1 (ID1). This is an immediate early gene that is activated by binding of the phosphorylated SMADs to its promoter region (López-Rovira et al., 2002). Thus, we employed the BMP-responsive C2C12 cells, which are stably transfected with the BRE-luciferase vector containing the BMP-Responsive-Element (the mouse ID1 promoter) cloned into the pGL3 luciferase vector (Zilberberg 2007). […] C2C12 cells were treated with the different BMPs with or without our VHHs or human Noggin at a concentration of 5 μg/ml. Luciferase activity was measured after 16 hours incubation. Most of the transcriptional data is in concordance with the results obtained with the phosphorylation of SMAD1/5/8.
C2C12 cells were plated in 96-well plates at 5×10^3 cells/well and cells were allowed to attach overnight. 100 μl of DMEM with 0.1% BSA were added in each well. VHH antibodies and human Fc-Noggin at the indicated concentrations were added at the same time. Wells with unstimulated cells were added as controls. […] Luciferase activity was measured by adding 100 μl of luciferase substrate solution from the Bright-Glo™ Luciferase Assay System (Promega Benelux, Leiden, The Netherlands). After 3 minutes of incubation, luciferase activity was measured with Synergy HT Multi-Mode Microplate Reader (Biotek, Winooski, Vt., United States). […]
(Reporter assays use an easily measured gene product as a stand-in for the process of interest.)

From patent US10280218B2, “Antibodies binding to BMP4, and uses thereof” (ACADEMISCH MEDISCH CENTRUM, priority 2014, dated 2019) come the findings set out here.

B1: C8E7: E7 linked to C8, hetero-dimer VHH bihead (protein)
chain: EVQLVESGGGLVQAGGSLRLSCAASGRTFRINDMGWYRQAPGKSRDMVARITSGGNTNYADSVKGRFTISRDNAKNTVYLQMNSLKPEDTAVYYCNADGLRFDSTRYRPFDSWGQGTQVTVSSGGGGSGGGGSEVQLVESGGGLVQAGGSLRLSCAASGSIRGFVAMAWYRQAPGKQREWVATVTNGGTLYGDSVKGRFTGSRDNAKNTVYLQMNSLKPEDTAVYYCALRQIGASGYDYWGQGTQVTVSS
As usually defined, the Kd is the concentration at which binding is half-saturated. Molecule B1 returned a Kd with BMP5 [1] of 95 nM. Further, in the experiment with BMP4, the “ka (BMP4)” value worked out at 34.6 and the “kd (BMP4)” value was 3.4 10^−5 sec^−1.

B2: hNoggin (protein)
chain: QHYLHIRPAPSDNLPLVDLIEHPDPIFDPKEKDLNETLLRSLLGGHYDPGFMATSPPEDRPGGGGGAAGGAEDLAELDQLLRQRPSGAMPSEIKGLEFSEGLAQGKKQRLSKKLRRKLQMWLWSQTFCPVLYAWNDLGSRFWPRYVKVGSCFSKRSCSVPEGMVCKPSKSVHLTVLRWRCQRRGGQRCGWIPIQYPIISECKCSC
Consider B2, for which, in the experiment with BMP5 [1], binding was characterised by a dissociation constant (Kd) of 68 nM. Moreover, in the experiment with BMP4, the “kd (BMP4)” value is 3.9 10^−5 sec^−1. For the same molecule, in the experiment with BMP5 [2], the “inhibition of BMP5 signals, comparison of inhibitors” value is recorded as “greatly inhibit”.
